Series [1] in a line: Oxidation of lovastatin by CYP102A1 wild type/mutants and human CYP3A4, product formation rate (turnover number). The format is biochemical. As to conditions: 100 μM lovastatin; mean±SD of triplicate; N.D. = less than 0.001. On the procedure: (§1) It was examined whether CYP102A1 and mutants thereof can oxidize simvastatin and lovastatin. Typical steady-state reactions for the oxidation of simvastatin and lovastatin included 50 pmol CYP102A1 in 0.25 ml of 100 mM potassium phosphate buffer (pH 7.4) along with a specified amount of substrate. To determine the kinetic parameters of several CYP102A1 mutants, 2 to 200 μM of statins were used. An aliquot of a NADPH-generating system was used to initiate reactions (final concentrations: 10 mM glucose 6-phosphate, 0.5 mM NADP+, and 1 IU yeast […]). A stock solution of statins (20 mM) was prepared in DMSO and diluted into the enzyme reactions with a final organic solvent concentration of <1% (v/v).
(§2) In the case of human CYP3A4 activity assay, a control experiment of 50 pmol P450, 100 pmol NADPH-P450 reductase (CPR), 100 pmol cytocrhome b5, and 45 μM L-α-dilauroyl-sn-glycero-3-phosphocholine (DLPC) was used instead of 50 pmol CYP102A1. After the solution was incubated for 30 minutes at 37° C., the reaction was terminated with 2-fold of ice-cold dichloromethane.
(§3) After centrifugation of the reaction mixture, the supernatant was carefully removed and the solvent was evaporated under N2 gas as described in Vickers et al., 1990. The products were analyzed by HPLC using a Gemini C18 column (4.6 mm×150 mm, 5 μm, Phenomenex, Torrance, Calif.) with a mobile phase of acetonitrile/water (70/30, v/v) containing 2.5 mM formic acid. Eluates were detected by UV at 238 nm.
(§4) First, the ability of wild-type and a set of P450 BM3 mutants to oxidize simvastatin and lovastatin was measured at a fixed substrate concentration (100 μM). While simvastatin and lovastatin are known to produce at least four and three metabolites, respectively, CYP102A1 mutants produced only two metabolites, one major (6β-OH statin) and one minor (6′-exomethylene statin) metabolites. The metabolites were analyzed by HPLC and compared to those of human CYP3A4 (FIGS. 1 and 2). Since there is no need to comprise a separate step of the 6′β-OH statin and 6′-exomethylene statin from other products, the use of wild-type and mutant CYP102A1 is beneficial.
(§5) Assays were performed using 100 μM simvastatin or lovastatin. Values are the mean±SD of triplicate determinations.

Series [2] in a line: Oxidation of simvastatin by CYP102A1 wild type/mutants and human CYP3A4, product formation rate (turnover number). The format is biochemical. The note with it: 100 μM simvastatin; mean±SD of triplicate; N.D. = less than 0.001. On the procedure:
as §1, §2, §3, §4, §5

Series [3] in a line: Kinetic parameters of 6′β-hydroxylation of lovastatin. The format is biochemical. The note with it: 2 to 200 μM statin. On the procedure: (§6) The 6′β-hydroxylation rates of simvastatin (A) and lovastatin (B) were measured in reaction mixtures consistingof 50 pmol CYP102A1 in 0.25 ml of 100 mM potassium phosphate buffer (pH 7.4) along with a specified amount of substrate (2 to 200 μM of statins)
as §1
(§7) The kinetic parameters (Km and kcat) were determined using nonlinear regression analysis with GraphPad PRISM software (GraphPad, San Diego, Calif.). […]

A short description of series [4]: Total turnover numbers of 6′β-OH product formation, simvastatin. As to conditions: total 1.0 mM statin, 37° C., 4 hours. It counts as biochemical. On the procedure:
In order to measure the total turnover numbers (TTNs; mol product/mol catalyst) of mutant CYP102A1, total 1.0 mM statin was used. The reaction was initiated by the addition of the NADPH-generating system in the presence of 500 μM substrate and incubated at 37° C. for 4 hours. After 2 hours of incubation, the 500 μM substrate was added to the reaction mixture. The formation rate of simvastatin metabolites was determined by HPLC chromatograms.

The nature of series [5]: Kinetic parameters of 6′β-hydroxylation of simvastatin. It counts as biochemical. The note with it: 2 to 200 μM statin. On the procedure: as §6, §1, §7
A short description of series [6]: Total turnover numbers of 6′β-OH product formation, lovastatin. The format is biochemical. The note with it: total 1.0 mM statin, 37° C., 4 hours. How it is done:
In order to measure the total turnover numbers (TTNs; mol product/mol catalyst) of mutant CYP102A1, total 1.0 mM statin was used. The reaction was initiated by the addition of the NADPH-generating system in the presence of 500 μM substrate and incubated at 37° C. for 4 hours. After 2 hours of incubation, the 500 μM substrate was added to the reaction mixture. […]

Series [7] concerns the target triple CYP102A1 mutant of R47L/F87V/L188Q (Priestia megaterium, UniProt P14779, F88V/L189Q/R48L). The note with it: cited from earlier work.
Series [8] addresses T1, CYP102A1 mutant #16 (Priestia megaterium, UniProt P14779, E144G/E268V/F82I/F88V/L189Q/R48L).
T1 construct: made in house; host or cells: Escherichia coli DH5αF′-IQ (soluble cytosolic fraction)
It counts as biochemical, Bacillus megaterium. The note with it: 50 μM αNF. On the procedure: (§8) Reaction mixtures consists of 50 pmol P450, 100 mM potassium phosphate buffer (pH 7.4), a NADPH-generating system, and a substrate (100 μM of simvastatin or lovastatin) in the presence of αNF (2 to 50 μM).
(§9) Products were analyzed by HPLC, as described above. In the case of human CYP3A4 activity assay, a control experiment of 50 pmol P450, 100 pmol NADPH-P450 reductase (CPR), 100 pmol cytocrhome b5, and 45 μM DLPC was used instead of 50 pmol CYP102A1.

Series [9] concerns the target T2, CYP102A1 mutant #17 (Priestia megaterium, UniProt P14779, E144G/E268V/E65G/F82I/F88V/L189Q/R48L).
T2 construct: made in house; host or cells: Escherichia coli DH5αF′-IQ (soluble cytosolic fraction)
The format is biochemical, Bacillus megaterium. As to conditions: 50 μM αNF. On the procedure: as §8, §9

Several values for one entry are separate records, joined by “and”; a condition that tells them apart may be missing. Identical values can stand only once.

T1 sequence (P14779 2-1049 R48L/F82I/F88V/E144G/L189Q/E268V): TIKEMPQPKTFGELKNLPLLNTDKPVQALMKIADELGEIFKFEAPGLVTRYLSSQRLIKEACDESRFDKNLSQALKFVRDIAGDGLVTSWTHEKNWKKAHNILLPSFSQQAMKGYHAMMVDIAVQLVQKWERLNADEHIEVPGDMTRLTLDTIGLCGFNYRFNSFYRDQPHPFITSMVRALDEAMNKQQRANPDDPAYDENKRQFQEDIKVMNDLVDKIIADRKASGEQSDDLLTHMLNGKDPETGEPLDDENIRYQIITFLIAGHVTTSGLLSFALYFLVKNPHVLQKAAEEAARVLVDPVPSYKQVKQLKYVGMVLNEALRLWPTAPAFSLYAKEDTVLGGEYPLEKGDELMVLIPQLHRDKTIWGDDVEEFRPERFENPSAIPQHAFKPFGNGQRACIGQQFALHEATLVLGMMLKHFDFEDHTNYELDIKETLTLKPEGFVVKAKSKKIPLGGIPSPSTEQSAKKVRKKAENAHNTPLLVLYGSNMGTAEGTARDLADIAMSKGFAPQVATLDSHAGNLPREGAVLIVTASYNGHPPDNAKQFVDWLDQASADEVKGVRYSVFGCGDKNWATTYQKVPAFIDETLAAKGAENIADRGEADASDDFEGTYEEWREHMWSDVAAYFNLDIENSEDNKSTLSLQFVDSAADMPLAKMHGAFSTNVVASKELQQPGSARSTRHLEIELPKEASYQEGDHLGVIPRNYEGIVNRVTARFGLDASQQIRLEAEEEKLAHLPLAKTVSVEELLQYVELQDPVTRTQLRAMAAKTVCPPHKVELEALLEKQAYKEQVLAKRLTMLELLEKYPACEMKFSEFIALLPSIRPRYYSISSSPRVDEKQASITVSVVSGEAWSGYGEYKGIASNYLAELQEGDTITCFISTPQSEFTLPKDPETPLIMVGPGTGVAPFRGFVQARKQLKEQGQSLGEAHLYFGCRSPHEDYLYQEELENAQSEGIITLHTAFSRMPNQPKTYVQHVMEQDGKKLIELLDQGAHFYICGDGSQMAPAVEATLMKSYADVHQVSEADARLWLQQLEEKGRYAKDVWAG
T2 sequence (P14779 2-1049 R48L/E65G/F82I/F88V/E144G/L189Q/E268V): as the sequence (P14779 2-1049 R48L/F82I/F88V/E144G/L189Q/E268V) above, with E64G counted along it
triple CYP102A1 mutant of R47L/F87V/L188Q, sequence (P14779 2-1049 R48L/F88V/L189Q): as the sequence (P14779 2-1049 R48L/F82I/F88V/E144G/L189Q/E268V) above, with I81F, G143E, V267E counted along it

Broadly, the Km is the concentration of substrate that gives half-maximal velocity. Regarding “Human CYP3A4: human cytochrome P450 3A4, reconstituted with NADPH-P450 reductase, cytochrome b5 and DLPC”, in [1], the “Lovastatin 6β′-OH product formation rate” value was 6.5 ± 0.3 nmol product/min/nmol P450 and the “Lovastatin 6′-Exomethylene product formation rate” value was 0.43 ± 0.01 nmol product/min/nmol P450. Moreover, in series [2], the “Simvastatin 6β′-OH product formation rate” value is given as 3.0 ± 0.1 nmol product/min/nmol P450 and the “Simvastatin 6′-Exomethylene product formation rate” value is given as 0.22 ± 0.01 nmol product/min/nmol P450. In addition, in series [3], the Km amounted to 54 ± 15 µM; the “kcat, 6′β-hydroxylation of lovastatin” value was 0.07 s⁻¹ and 0.07 ± 0.0083 s⁻¹. The “Total turnover number of 6′β-OH product formation, simvastatin” value (“Total turnover number … simvastatin” for short) in [4] is 35 ± 5 nmol product/nmol P450. Further, in series [5], the Km came out at 130 µM; the “kcat, 6′β-hydroxylation of simvastatin” value is 0.11 s⁻¹ and 0.11 ± 0.015 s⁻¹. Also, the “Total turnover number of 6′β-OH product formation, lovastatin” value (from here on “Total turnover number … lovastatin”) in [6] came out at 44 ± 6 nmol product/nmol P450.
With `O=c1cc(-c2ccccc2)oc2c1ccc1ccccc12` [αNF, 7,8-benzoflavone], the “Effect on metabolism of acetaminophen and 3,4-methylenedioxymethylamphetamine” value in series [7] was “did not have a significant effect”. Further, the “Inhibition of 6′β-hydroxylation activity of lovastatin” value in series [8] (100 μM lovastatin) was determined as 48%; in series [9] (100 μM lovastatin), 76%. For the same molecule, the results for the “Inhibition of 6′β-hydroxylation activity of simvastatin” value in [8] (100 μM simvastatin) and in series [9] (100 μM simvastatin) were 44% and 77%, respectively.

B1: BM3 WT: wild-type bacterial cytochrome P450 BM3 (CYP102A1), Seq ID No. 16 (protein, listed as Bacillus megaterium)
chain: TIKEMPQPKTFGELKNLPLLNTDKPVQALMKIADELGEIFKFEAPGRVTRYLSSQRLIKEACDESRFDKNLSQALKFVRDFAGDGLFTSWTHEKNWKKAHNILLPSFSQQAMKGYHAMMVDIAVQLVQKWERLNADEHIEVPEDMTRLTLDTIGLCGFNYRFNSFYRDQPHPFITSMVRALDEAMNKLQRANPDDPAYDENKRQFQEDIKVMNDLVDKIIADRKASGEQSDDLLTHMLNGKDPETGEPLDDENIRYQIITFLIAGHETTSGLLSFALYFLVKNPHVLQKAAEEAARVLVDPVPSYKQVKQLKYVGMVLNEALRLWPTAPAFSLYAKEDTVLGGEYPLEKGDELMVLIPQLHRDKTIWGDDVEEFRPERFENPSAIPQHAFKPFGNGQRACIGQQFALHEATLVLGMMLKHFDFEDHTNYELDIKETLTLKPEGFVVKAKSKKIPLGGIPSPSTEQSAKKVRKKAENAHNTPLLVLYGSNMGTAEGTARDLADIAMSKGFAPQVATLDSHAGNLPREGAVLIVTASYNGHPPDNAKQFVDWLDQASADEVKGVRYSVFGCGDKNWATTYQKVPAFIDETLAAKGAENIADRGEADASDDFEGTYEEWREHMWSDVAAYFNLDIENSEDNKSTLSLQFVDSAADMPLAKMHGAFSTNVVASKELQQPGSARSTRHLEIELPKEASYQEGDHLGVIPRNYEGIVNRVTARFGLDASQQIRLEAEEEKLAHLPLAKTVSVEELLQYVELQDPVTRTQLRAMAAKTVCPPHKVELEALLEKQAYKEQVLAKRLTMLELLEKYPACEMKFSEFIALLPSIRPRYYSISSSPRVDEKQASITVSVVSGEAWSGYGEYKGIASNYLAELQEGDTITCFISTPQSEFTLPKDPETPLIMVGPGTGVAPFRGFVQARKQLKEQGQSLGEAHLYFGCRSPHEDYLYQEELENAQSEGIITLHTAFSRMPNQPKTYVQHVMEQDGKKLIELLDQGAHFYICGDGSQMAPAVEATLMKSYADVHQVSEADARLWLQQLEEKGRYAKDVWAG
As for B1, in series [1], the “Lovastatin 6β′-OH product formation rate” value is on record as “N.D. (not detectable(the rate of product formation was less than 0.001 nmol product/min/nmol P450))” and the “Lovastatin 6′-Exomethylene product formation rate” value was “N.D. (not detectable(the rate of product formation was less than 0.001 nmol product/min/nmol P450))”. In series [2], the “Simvastatin 6β′-OH product formation rate” value was 0.0049 ± 0.0017 nmol product/min/nmol P450 and the “Simvastatin 6′-Exomethylene product formation rate” value is given as “N.D. (not detectable(the rate of product formation was less than 0.001 nmol product/min/nmol P450))”. Also, in series [4], the “Total turnover number … simvastatin” value was determined as 0.77 ± 0.04 nmol product/nmol P450. The “Total turnover number … simvastatin” value in series [4] (listed as wild-type CYP102A1) was 0.77 nmol product/nmol P450. Further, the “Total turnover number … lovastatin” value in series [6] is reported as 1.9 ± 0.6 nmol product/nmol P450. Moreover, the “Total turnover number … lovastatin” value in [6] (listed as wild-type CYP102A1) was determined as 1.9 nmol product/nmol P450.

The values above are taken from US9145571B2, “Preparation method of human metabolites of simvastatin or lovastatin using bacterial cytochrome P450 and composition therefor” (priority 2009, dated 2015).
